Measurements taken from patent US20240002509A1.

What follows are substances tested against human FcγR1A (human) (UniProt P12314) (assay: SPR (Biacore T200), antibody amine-coupled on CM5 (~950 RU), receptor as analyte, 25 C).
Sequence of UniProt P12314 (P12314 16-288 limits assumed): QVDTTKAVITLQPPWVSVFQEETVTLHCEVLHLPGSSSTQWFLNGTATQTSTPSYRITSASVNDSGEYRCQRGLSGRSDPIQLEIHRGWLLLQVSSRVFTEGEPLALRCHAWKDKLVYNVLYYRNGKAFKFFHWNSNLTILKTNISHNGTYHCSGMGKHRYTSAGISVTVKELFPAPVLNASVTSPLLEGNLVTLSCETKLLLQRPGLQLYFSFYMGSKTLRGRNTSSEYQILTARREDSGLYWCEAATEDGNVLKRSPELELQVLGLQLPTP

Q: Which Maximum response at 100 nM hFcgammaRIA (RU) does the source give for “DANAPA-IgG1 (D265A/N297A/P329A) anti-CD3 antibody” here?
A: The Maximum response at 100 nM hFcgammaRIA (RU) was 11 RU.

Q: Which Maximum response at 100 nM hFcgammaRIA (RU) does the source give for “DAPASK-IgG1 (D265A/P329A/S267K) anti-CD3 antibody” here?
A: Its Maximum response at 100 nM hFcgammaRIA (RU) is 13 RU.

Q: Which Maximum response at 100 nM hFcgammaRIA (RU) does the source give for “GADAPA-IgG1 (G237A/D265A/P329A) anti-CD3 antibody” here?
A: The Maximum response at 100 nM hFcgammaRIA (RU) was 16 RU.

Q: For “GADAPASK-IgG1 (G237A/D265A/P329A/S267K) anti-CD3 antibody”, which Maximum response at 100 nM hFcgammaRIA (RU) is on record?
A: Its Maximum response at 100 nM hFcgammaRIA (RU) is 10 RU.

Q: Which Maximum response at 100 nM hFcgammaRIA (RU) does the source give for “LALAGA-IgG1 (L234A/L235A/G237A) anti-CD3 antibody” here?
A: Its Maximum response at 100 nM hFcgammaRIA (RU) is 15 RU.

Q: For “LALAPG-IgG1 (L234A/L235A/P329G) anti-CD3 antibody”, which Maximum response at 100 nM hFcgammaRIA (RU) is on record?
A: The Maximum response at 100 nM hFcgammaRIA (RU) was 18 RU.

Q: “LALASKPA-IgG1 (L234A/L235A/S267K/P329A) anti-CD3 antibody” was tested. Which Maximum response at 100 nM hFcgammaRIA (RU) did it give?
A: Its Maximum response at 100 nM hFcgammaRIA (RU) is 9 RU.
